Measured values as given in paper PMC4353693.

Assays:
[1] = biological target: actin binding domain of plectin isoform 1a (P1aABD); experiment: ITC
[2] = biological target: actin binding domain of plectin isoform 1a (P1aABD); experiment: SAXS

Kd [1]: 41.7 µM
dH [1]: 3.69 kcal/mol
volume fraction of the complex in solution (SAXS, OLIGOMER) [2]: 54%
B1: first two FnIII domains of integrin β4 (β4Fn12; 1126–1355) (domain or fragment)
chain: DLGAPQNPNAKAAGSRKIHFNWLPPSGKPMGYRVKYWIQGDSESEAHLLDSKVPSVELTNLYPYCDYEMKVCAYGAQGEGPYSSLVSCRTHQEVPSEPGRLAFNVVSSTVTQLSWAEPAETNGEITAYEVCYGLVNDDNRPIGPMKKVLVDNPKNRMLLIENLRESQPYRYTVKARNGAGWGPEREAIINLATQPKRPMSIPIIPDIPIVDAQSGEDYDSFLMYSDDVLR
